The series deals with the molecule itself. The series is described as follows: SEC-MALS; 500 uL sample at 1 mg/mL on Superdex 75 10/30 in 50 mM Tris-HCl, 0.15 M NaCl, pH 8.0, online triple-angle static light scattering (MiniDAWN Treos). On the technique in general: Size exclusion chromatography separates by hydrodynamic size, large species first.

B1: POZ/BTB domain of KCTD6 (domain or fragment, human, UniProt Q8NC69 10-110, looked up)
chain: MTDPVTLNVGGHLYTTSLTTLTRYPDSMLGAMFGGDFPTARDPQGNYFIDRDGPLFRYVLNFLRTSELTLPLDFKEFDLLRKEADFYQIEPLIQCLNDPKP
notes: KCTD6, human, POZ/BTB domain, residues 10-110 of the protein of 237 residues (UniProt Q8NC69); cDNA NM_153331; also called KCTD6BTB; source: E. coli BL21(DE3) Star, purified
For the protein B1, the “stoichiometry N” value is 4.

By stoichiometry N is commonly meant the number of molecules, sites or subunits per partner or assembly.

The values are drawn from PMC3838848 (BioMed Research International, 2013).
